Measurements taken from paper PMC8609364, “A Selective Tether Recruits Activated Response Regulator CheB to Its Chemoreceptor Substrate” (mBio, 2021).

Tests used:
[1] = target: Tar4EΔpp-6H L378C, E. coli Tar lacking the carboxyl-terminal pentapeptide, all-glutamyl form, homodimer in … (E. coli, UniProt P07017 1-553, L378C, biotinylated at L378C); assay: BLI; BLItz; biotinylated Tar homodimers in Nanodiscs held on an avidin sensor tip, CheB or CheBC in solution; 50 mM Tris-HCl pH 7.5, 10% glycerol, 5 mM MgCl2, 50 mM KCl, 2% BSA, 2 mM DTT; global fit, apparent rate constants, KD calculated from kon and koff; details: both partners purified
[2] = target: Tar4QΔpp-6H L378C, E. coli Tar lacking the carboxyl-terminal pentapeptide, all-glutaminyl form, homodimer in … (E. coli, UniProt P07017 1-553, L378C, biotinylated at L378C); assay: as above; details: both partners purified
TarQEQE = details: pulldown assay, pentapeptide at carboxyl terminus of TarQEQE in native membrane, unphosphorylated CheB; ref [21]; read-out: equilibrium dissociation constant [KD]; cited from earlier work
[3] = target: Tar4E L378C, E. coli aspartate chemoreceptor Tar, all-glutamyl form with carboxyl-terminal pentapeptide, homodimer in Nanodiscs (E. coli) (UniProt P07017); assay: BLI; BLItz; biotinylated Tar homodimers in Nanodiscs held on an avidin sensor tip, CheB or CheBC in solution; 50 mM Tris-HCl pH 7.5, 10% glycerol, 5 mM MgCl2, 50 mM KCl, 2% BSA, 2 mM DTT; global fit, apparent rate constants, KD calculated from kon and koff
[4] = target: Tar4Q L378C, E. coli aspartate chemoreceptor Tar, all-glutaminyl form with carboxyl-terminal pentapeptide, homodimer in Nanodiscs (E. coli) (UniProt P07017); assay: as above
[5] = target: T1, Tar4E L378C, E. coli aspartate chemoreceptor Tar, all-glutamyl form with carboxyl-terminal pentapeptide, … (E. coli, UniProt P07017 1-553, L378C, biotinylated at L378C); assay: SPR
[6] = target: T2, Tar4QΔpp-6H L378C, E. coli Tar lacking the carboxyl-terminal pentapeptide, all-glutaminyl form, homodimer in … (E. coli, UniProt P07017 1-553, L378C, biotinylated at L378C); assay: SPR
[7] = target: T3, Tar4Q L378C, E. coli aspartate chemoreceptor Tar, all-glutaminyl form with carboxyl-terminal pentapeptide, … (E. coli, UniProt P07017 1-553, L378C, biotinylated at L378C); assay: SPR
[8] = target: T4, Tar4EΔpp-6H L378C, E. coli Tar lacking the carboxyl-terminal pentapeptide, all-glutamyl form, homodimer in … (E. coli, UniProt P07017 1-553, L378C, biotinylated at L378C); assay: SPR
[9] = target: T1, Tar4E L378C, E. coli aspartate …; assay: SPR; remark: listed apart in the source
[10] = target: T2, Tar4QΔpp-6H L378C, E. coli Tar lacking …; assay: SPR; remark: listed apart in the source
[11] = target: T4, Tar4EΔpp-6H L378C, E. coli Tar lacking …; assay: SPR; remark: listed apart in the source
[12] = target: T1, Tar4E L378C, E. coli aspartate …; assay: SPR; remark: listed apart in the source
[13] = target: T2, Tar4QΔpp-6H L378C, E. coli Tar lacking …; assay: SPR; remark: listed apart in the source
[14] = target: T3, Tar4Q L378C, E. coli aspartate …; assay: SPR; remark: listed apart in the source
[15] = target: T4, Tar4EΔpp-6H L378C, E. coli Tar lacking …; assay: SPR; remark: listed apart in the source

B1: methylesterase/deamidase CheB from E. coli, low-activity, unphosphorylated form (enzyme, UniProt P07330 1-349, looked up)
chain: MSKIRVLSVDDSALMRQIMTEIINSHSDMEMVATAPDPLVARDLIKKFNPDVLTLDVEMPRMDGLDFLEKLMRLRPMPVVMVSSLTGKGSEVTLRALELGAIDFVTKPQLGIREGMLAYNEMIAEKVRTAAKASLAAHKPLSAPTTLKAGPLLSSEKLIAIGASTGGTEAIRHVLQPLPLSSPALLITQHMPPGFTRSFADRLNKLCQIGVKEAEDGERVLPGHAYIAPGDRHMELSRSGANYQIKIHDGPAVNRHRPSVDVLFHSVAKQAGRNAVGVILTGMGNDGAAGMLAMRQAGAWTLAQNEASCVVFGMPREAINMGGVCEVVDLSQVSQQMLAKISAGQAIRI
notes: CheB methylesterase/deamidase of E. coli, unphosphorylated, from plasmid pCW/cheB; measured with 2 mM DTT in the buffer; also called low-activity CheB; unmodified CheB; source: E. coli K-12 RP3098 with pCW/cheB, purified
For B1, the Kd [1] is listed as 850 µM, the Kd [2] is listed as 590 µM and the Kd (TarQEQE) is listed as ~150 µM. For the same molecule, the Kd [3] was 230 µM, the Kd [4] was 160 µM and the Ka [5] was 4400 M⁻¹. For the same molecule, the Ka [6] was 1700 M⁻¹, the Ka [7] was 6300 M⁻¹ and the Ka [8] was 1200 M⁻¹. For the same molecule, the koff [9] was 0.36 s⁻¹, the koff [10] was 0.65 s⁻¹ and the koff [11] was 0.64 s⁻¹.

B2: CheBC, catalytic domain of E. coli CheB lacking the regulatory domain and linker (domain or fragment)
chain: LSSEKLIAIGASTGGTEAIRHVLQPLPLSSPALLITQHMPPGFTRSFADRLNKLCQIGVKEAEDGERVLPGHAYIAPGDRHMELSRSGANYQIKIHDGPAVNRHRPSVDVLFHSVAKQAGRNAVGVILTGMGNDGAAGMLAMRQAGAWTLAQNEASCVVFGMPREAINMGGVCEVVDLSQVSQQMLAKISAGQAIRI
For B2, the Kd [12] was 590 µM, the Kd [13] was 1200 µM and the Kd [14] was 1400 µM. For the same molecule, the Kd [15] was 660 µM, the Ka [5] was 1700 M⁻¹ and the Ka [6] was 800 M⁻¹. It also gave a Ka [7] of 700 M⁻¹, a Ka [8] of 1500 M⁻¹ and a koff [9] of 0.48 s⁻¹. For the same molecule, the koff [10] was 0.58 s⁻¹ and the koff [11] was 0.44 s⁻¹.
